In US12331106B2, “Anti-angiopoietin-2 antibodies that induce Tie2 activation” (Institute for Basic Science, priority 2018, dated 2025):

Tested on: Tie2 receptor clustering / FOXO1 translocation in HUVECs
Assay: Tie2 clustering and FOXO1 translocation in HUVECs (immunofluorescence)
Type: cell-based, human
Settings: HUVECs; 30 min; compared to serum-starved control
Experimental: Tie2 clustering at cell-cell junction area and FOXO1 translocation from nucleus to cytosol by anti-Ang2 antibodies were examined in HUVECs by immunofluorescence. Specifically, HUVECs were seeded on 8 well slide chamber (Lab-Tek™ II) and maintained in EGM-2 medium for 2-3 days. At 100% confluence, the cells were serum starved with EBM-2 medium for 4 hrs and then treated with 1 μg/ml anti-Ang2 antibodies together with 1 μg/ml of hAng2 for 30 min. Thereafter, the cells were fixed with 4% formaldehyde in PBS at room temperature (RT) for 10 min, permeabilized with 0.1% TRITON™ X-100 (non-ionic polyoxyethylene surfactant) in PBS, blocked with 1% BSA in PBS at RT for 60 min, and incubated with primary antibodies at RT for 1 hr. The primary antibodies for hTie2, FOXO1, and Human Fc were used. The cells were then incubated with secondary antibodies (Invitrogen) in the dark at RT for 1 hr and mounted with VECTASHIELD® mounting medium with DAPI (Vector Labs, antifade mounting media optimized for immunofluorescence applications). Images were taken with a laser scanning confocal microscope (LSM880, Carl Zeiss).
2C8H11-induced Tie2 clustering and FOXO1 translocation was examined in a time-course study (from 10 min to 240 min). […] 6-4: Inhibition of Vascular Permeability by Humanized Anti-Ang2 Antibodies

B1: Ang2: full-length human angiopoietin-2 protein (R&D Systems), Tie2 ligand, SEQ ID NO: 1 (protein)
chain: MWQIVFFTLSCDLVLAAAYNNFRKSMDSIGKKQYQVQHGSCSYTFLLPEMDNCRSSSSPYVSNAVQRDAPLEYDDSVQRLQVLENIMENNTQWLMKLENYIQDNMKKEMVEIQQNAVQNQTAVMIEIGTNLLNQTAEQTRKLTDVEAQVLNQTTRLELQLLEHSLSTNKLEKQILDQTSEINKLQDKNSFLEKKVLAMEDKHIIQLQSIKEEKDQLQVLVSKQNSIIEELEKKIVTATVNNSVLQKQQHDLMETVNNLLTMMSTSNSAKDPTVAKEEQISFRDCAEVFKSGHTTNGIYTLTFPNSTEEIKAYCDMEAGGGGWTIIQRREDGSVDFQRTWKEYKVGFGNPSGEYWLGNEFVSQLTNQQRYVLKIHLKDWEGNEAYSLYEHFYLSSEELNYRIHLKGLTGTAGKISSISQPGNDFSTKDGDNDKCICKCSQMLTGGWWFDACGPSNLNGMYYPQRQNTNKFNGIKWYYWKGSGYSLKATTMMIRPADF
modifications: Human Angiopoietin-2 full-length
- FOXO1 translocation from nucleus to cytosol: negligibly induced
